Positions count from the first letter of the chain named. Names may count otherwise.
B1: His6-NSF-myc (1-744), N-Ethylmaleimide Sensitive Factor, wild type (enzyme, Chinese hamster (from CHO cells), UniProt P18708 1-744, looked up)
chain: MAGRSMQAARCPTDELSLSNCAVVSEKDYQSGQHVIVRTSPNHKYIFTLRTHPSVVPGSVAFSLPQRKWAGLSIGQEIEVALYSFDKAKQCIGTMTIEIDFLQKKNIDSNPYDTDKMAAEFIQQFNNQAFSVGQQLVFSFNDKLFGLLVKDIEAMDPSILKGEPASGKRQKIEVGLVVGNSQVAFEKAENSSLNLIGKAKTKENRQSIINPDWNFEKMGIGGLDKEFSDIFRRAFASRVFPPEIVEQMGCKHVKGILLYGPPGCGKTLLARQIGKMLNAREPKVVNGPEILNKYVGESEANIRKLFADAEEEQRRLGANSGLHIIIFDEIDAICKQRGSMAGSTGVHDTVVNQLLSKIDGVEQLNNILVIGMTNRPDLIDEALLRPGRLEVKMEIGLPDEKGRLQILHIHTARMRGHQLLSADVDIKELAVETKNFSGAELEGLVRAAQSTAMNRHIKASTKVEVDMEKAESLQVTRGDFLASLENDIKPAFGTNQEDYASYIMNGIIKWGDPVTRVLDDGELLVQQTKNSDRTPLVSVLLEGPPHSGKTALAAKIAEESNFPFIKICSPDKMIGFSETAKCQAMKKIFDDAYKSQLSCVVVDDIERLLDYVPIGPRFSNLVLQALLVLLKKAPPQGRKLLIIGTTSRKDVLQEMEMLNAFSTTIHVPNIATGEQLLEALELLGNFKDKERTTIAQQVKGKKVWIGIKKLLMLIEMSLQMDPEYRVRKFLALLREEGASPLDFD
modifications: (Ni2+-NTA)2-Cy3 bound to the His6 tag (ultracentrifugation only; 1 mole of dye per mole of NSF hexamer)
B2: His6-NSF-D1D2-myc fragment (206-744) (domain or fragment, Chinese hamster (from CHO cells), UniProt P18708 206-744, looked up)
chain: QSIINPDWNFEKMGIGGLDKEFSDIFRRAFASRVFPPEIVEQMGCKHVKGILLYGPPGCGKTLLARQIGKMLNAREPKVVNGPEILNKYVGESEANIRKLFADAEEEQRRLGANSGLHIIIFDEIDAICKQRGSMAGSTGVHDTVVNQLLSKIDGVEQLNNILVIGMTNRPDLIDEALLRPGRLEVKMEIGLPDEKGRLQILHIHTARMRGHQLLSADVDIKELAVETKNFSGAELEGLVRAAQSTAMNRHIKASTKVEVDMEKAESLQVTRGDFLASLENDIKPAFGTNQEDYASYIMNGIIKWGDPVTRVLDDGELLVQQTKNSDRTPLVSVLLEGPPHSGKTALAAKIAEESNFPFIKICSPDKMIGFSETAKCQAMKKIFDDAYKSQLSCVVVDDIERLLDYVPIGPRFSNLVLQALLVLLKKAPPQGRKLLIIGTTSRKDVLQEMEMLNAFSTTIHVPNIATGEQLLEALELLGNFKDKERTTIAQQVKGKKVWIGIKKLLMLIEMSLQMDPEYRVRKFLALLREEGASPLDFD
modifications: (Ni2+-NTA)2-Cy3 bound to the His6 tag (ultracentrifugation only)
B3: His6-NSF-R67A-myc (enzyme, Chinese hamster (from CHO cells), UniProt P18708 1-744, looked up)
chain: B1 chain with R67A
modifications: (Ni2+-NTA)2-Cy3 bound to the His6 tag (ultracentrifugation)
B4: His6-NSF-L441A-myc (enzyme, Chinese hamster (from CHO cells), UniProt P18708 1-744, looked up)
chain: B1 chain with L441A
modifications: (Ni2+-NTA)2-Cy3 bound to the His6 tag (ultracentrifugation)
B5: His6-NSF-D2 fragment (488-744) (domain or fragment, Chinese hamster (from CHO cells), UniProt P18708 488-744, looked up)
chain: IKPAFGTNQEDYASYIMNGIIKWGDPVTRVLDDGELLVQQTKNSDRTPLVSVLLEGPPHSGKTALAAKIAEESNFPFIKICSPDKMIGFSETAKCQAMKKIFDDAYKSQLSCVVVDDIERLLDYVPIGPRFSNLVLQALLVLLKKAPPQGRKLLIIGTTSRKDVLQEMEMLNAFSTTIHVPNIATGEQLLEALELLGNFKDKERTTIAQQVKGKKVWIGIKKLLMLIEMSLQMDPEYRVRKFLALLREEGASPLDFD
modifications: (Ni2+-NTA)2-Cy3 bound to the His6 tag (ultracentrifugation)

Target: the molecule itself
Experiment: negative-stain electron microscopy, single particle analysis

Protein | stoichiometry N
B1 | 6
B2 | 6

Target: the molecule itself
Experiment: AUC

Protein | % Hexamer
B1 | 62 ± 5.74%
B3 | 55.6 ± 12.5%
B4 | 34.4 ± 1.06%
B2 | 44 ± 2.93%
B5 | 28.8 ± 1.92%

Target: the molecule itself
Experiment: AUC
Remark: another data set of the same source

Protein | % Hexamer
B1 | 47 ± 3.7%
B3 | 38.7 ± 4.21%
B4 | 34.2 ± 2.78%
B2 | 14.1 ± 0.31%
B5 | 10.3 ± 0.63%

Reference: publication PMC3382979 (Journal of Structural Biology, 2012)
